Experimental data taken from PMC13123425, “A mutant complement factor H (W1183R) enhances proteolytic cleavage of von Willebrand factor by ADAMTS-13 under shear” (Journal of thrombosis and haemostasis : JTH, 2025).

Biological target: purified human recombinant von Willebrand factor (multimeric) (human, UniProt P04275 764-2813)
Assay: cell-based or functional assay

B1: human recombinant W1183R complement factor H (natural protein, UniProt P08603 19-1231, looked up)
chain: EDCNELPPRRNTEILTGSWSDQTYPEGTQAIYKCRPGYRSLGNVIMVCRKGEWVALNPLRKCQKRPCGHPGDTPFGTFTLTGGNVFEYGVKAVYTCNEGYQLLGEINYRECDTDGWTNDIPICEVVKCLPVTAPENGKIVSSAMEPDREYHFGQAVRFVCNSGYKIEGDEEMHCSDDGFWSKEKPKCVEISCKSPDVINGSPISQKIIYKENERFQYKCNMGYEYSERGDAVCTESGWRPLPSCEEKSCDNPYIPNGDYSPLRIKHRTGDEITYQCRNGFYPATRGNTAKCTSTGWIPAPRCTLKPCDYPDIKHGGLYHENMRRPYFPVAVGKYYSYYCDEHFETPSGSYWDHIHCTQDGWSPAVPCLRKCYFPYLENGYNQNYGRKFVQGKSIDVACHPGYALPKAQTTVTCMENGWSPTPRCIRVKTCSKSSIDIENGFISESQYTYALKEKAKYQCKLGYVTADGETSGSITCGKDGWSAQPTCIKSCDIPVFMNARTKNDFTWFKLNDTLDYECHDGYESNTGSTTGSIVCGYNGWSDLPICYERECELPKIDVHLVPDRKKDQYKVGEVLKFSCKPGFTIVGPNSVQCYHFGLSPDLPICKEQVQSCGPPPELLNGNVKEKTKEEYGHSEVVEYYCNPRFLMKGPNKIQCVDGEWTTLPVCIVEESTCGDIPELEHGWAQLSSPPYYYGDSVEFNCSESFTMIGHRSITCIHGVWTQLPQCVAIDKLKKCKSSNLIILEEHLKNKKEFDHNSNIRYRCRGKEGWIHTVCINGRWDPEVNCSMAQIQLCPPPPQIPNSHNMTTTLNYRDGEKVSVLCQENYLIQEGEEITCKDGRWQSIPLCVEKIPCSQPPQIEHGTINSSRSSQESYAHGTKLSYTCEGGFRISEENETTCYMGKWSSPPQCEGLPCKSPPEISHGVVAHMSDSYQYGEEVTYKCFEGFGIDGPAIAKCLGEKWSHPPSCIKTDCLSLPSFENAIPMGEKKDVYKAGEQVTYTCATYYKMDGASNVTCINSRWTGRPTCRDTSCVNPPTVQNAYIVSRQMSKYPSGERVRYQCRSPYEMFGDEEVMCLNGNWTEPPQCKDSTGKCGPPPPIDNGDITSFPLSVYAPASSVEYQCQNLYQLEGNKRITCRNGQWSEPPKCLHPCVISREIMENYNIALRRTAKQKLYSRTGESVEFVCKRGYRLSSRSHTLRTTCWDGKLEYPTCAKR
B1 was tested. Which “cleavage product (~350 kD band) of multimeric VWF by recombinant ADAMTS-13 under vortexing-induced shear, with 0–2 μM W1183R-CFH” value did it give?
Its value is roughly 2 fold.
